Test system: K4 kissing-loop RNA reporter
Assay: apparent KD of K4 kissing-loop reporter; higher = weaker reporter binding
Conditions: Eterna round: R107
Protocol: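 RNA-MaP round R107: designed RNA switches with theophylline, tryptophan, arginine or FMN aptamers are transcribed on-chip within common flanks. They are titrated with a labelled K4 kissing-loop RNA reporter in RNA-MaP buffer (100 mM Tris pH 7.5, 80 mM KCl, 4 mM MgCl2), without ligand or with the indicated ligand. Median apparent KD per design.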

[1] = input ligand: theophylline 20 uM
[2] = input ligand: tryptophan 2.4 mM
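Also: bound reporter read as fluorescence of individual clusters on recovered sequencing chips by microscopy, with normalized cluster intensities fitted with a binding model.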

Sequence	apparent KD of K4 kissing-loop reporter (input ligand: FMN 200 uM) [nM]	apparent KD of K4 kissing-loop reporter (input ligand: arginine 13.2 mM) [nM]	apparent KD of K4 kissing-loop reporter (input ligand: none) [nM]	apparent KD of K4 kissing-loop reporter [1] [nM]	apparent KD of K4 kissing-loop reporter [2] [nM]
UGACUACAUCCUAGUGAUGUUUAGGAUAUGUAGGAUAUGCUGAUAAGCAGAAGGACAGAAGGAAGUGAUGUUCUUAAAGUAGUCU [FmnAX 29 #DoubleAptamer #Double K4 #SwitchBubble #StaticStem]	644	783	1050	760	802
CCAUCGCUAUUCGAUACCAGUCAUAAAAUCUUUGGUUUAAUAAAGGAGUGAUGUUCCCAAGACCCUUGGCAGCGAAUAGUGAUGG [Theophylline B K4 8]	186	185	176	197	190
GGAACGUUGCGGACUAUCGCAUAAAGUCACCGAGGACCGGUACGGCCGCCACUCGCCAGUGAUGUUGGCGUGUUUGCGCGCUGUA [Isteri]	99.6	91.1	101	83.6	117
AGGUCCGAGCCCGGAAGGGCUCGGACCUGUUAGGAUAUGACGUUAUUCAGAAGGGAUGGGUGGAGUGAUGUUCCACCCGAGAGGG [#2 Same State - FMN A Attempt #17 (HarryS)]	106	103	100	108	98.3
GUAAGAUGAGGAGGAGGAUGAAUUACUGAAGGAGCGCAUAUAAAUGCAGGUAGGUCGCGGUAAAGAAGUAUAGUGAUGUUAUAUA [#20 K4 Arginine A Same State]	452	508	464	459	474
UGAUAGGACAGAAGGAGCGGAAGUGAUGUUUCCAAAAGGCUAAGGUGUCAAAAGACACCCUUCCAGGUAGGUCGCUGUCCUAUCU	237	274	221	260	203
CAUACUAUCAGAAGGAGCGUGGAAUAUUCAUCUGUAUCUAAUACGAGUGAUGUUCGUAAUUCACAGGUAGGUCGCUGAUUAAUAC [whbob_Ex_Arginine_B_2th159]	265	272	267	269	219
CCAUUCUGUUACGAUACCAGUCAAAUAUAUUUGAUCAAUACCCUCGCCGAGUGAUGUUCGGACCCUUGGCAGCGUCUGGGACAGG [ccdfmullin]	537	561	710	544	596
GUAGCACUUGGUAGUGAUGUUACCAAGGACAAGGAUAUCAUCUCAAUGAGAAGGUGUCCUUGGUAACAGCUACGGGAAUAUCCCA [Omei KL FMN A Exc D v2]	275	194	226	242	246
CUUGGUGGCUACAUCAGGAAUUGCGGCGGAAAGGAUAUUCAUUGGCGAAGAAGGUUCCAAGUGACGAGUGAUGUUCUUCGUAAGG [theeternabot_sameState_KL_FMN_A_13]	422	434	802	579	779
AGCGGCCAGUCGGCCGCCACUCCAGGCAGUGAUGUUGCUAAGUUUCUACUAGAGUGAUGUUCUAAGAGGACCGGGACUGACGUAU [Exclusion Tryptophan B Gf 8]	178	225	199	216	145
GGUGUUGUUUGUGCCGUCUUCCUCGUUCCUCGAGGACCGGUACGGCCGCCACUCGAGUGAUGUUUGGGUAGCGAUCCCUGUUAGU [Bdazzled - #10 Exc. Tryptophan A]	695	541	647	602	582
AGUCCACUCUAAAGAGUGGACCUAAGGGAUACCAGUGAUGUUGGUCACCCUUGGCAGCCCUCUGUCAUCGAUAAAGAUGGCAGGA	128	114	113	137	119
AGCUGUGGCAGAAGGAGCGACAGUUAUUCUGAUAGUACUCUGAGUGAUGUUCAGAACGACUGUCAGGUAGGUCGCUGUCACAGCU [#01 K4 Arginine B Exclusion]	172	159	175	153	169
GUUACGCAUGGAAGGAGCGCACUCCGGUUGAUCGACACAGUGAUGUUGUGGUUCAUUCGAAUGCAGGUAGGUCGCCAUGUGUAAC [Ex Arginine B K4 15]	808	593	847	886	804
GCCGUACGCAUGGAUACCAGAUCUAGACGCUUAGUGAUGUUAAGUAAUCUGGUUAGACCGAUCCCUUGGCAGCCAUGCGUACGGC	270	199	229	203	200

Sequence	apparent KD of K4 kissing-loop reporter (input ligand: FMN 200 uM) [nM]	apparent KD of K4 kissing-loop reporter (input ligand: arginine 13.2 mM) [nM]	apparent KD of K4 kissing-loop reporter (input ligand: none) [nM]	apparent KD of K4 kissing-loop reporter [1] [nM]	apparent KD of K4 kissing-loop reporter [2] [nM]
UGAUACCAGACUGAUACCAGCAAGUGAUGUUUGUUGAUCUAAAGCAGUCAAAGACUGCCUUGCCCUUGGCAGCAGUCUGGUAUCU [TheoBX 27 #SwitchBubble #StaticStem]	886	569	832	354	901
AAUAAGCGCGGAAGGAGCGCCGCCAGUGAUGUUGGGAGUUAGAUACCAGUGAUGUUGGGCCGGCAGGUAGGUCGCCGCAAAGCUU [Exclusion Arginine B Gf 14]	208	86.5	165	137	138
GCCGUAGAUGGAAGGAGCGUGGUGGACUCGUGAAGUGAUGUUUCAAGUCGUUAUGCCCAACCACAGGUAGGUCGCCAUCUACGGC	277	204	270	231	251
AGUAAUCUCACGGCCGCCACUGUUUAUUGUUUUUAUAGUUAUAAAUCUUGCCAGUGAUGUUGGUACAGGACCGGGUGAGUUAAUA [#25 K4 Tryptophan B Same State]	357	360	402	353	316
GCAUGACGGUAAGGAUAUAGAUAAUCCUUAUAUACGUCGAGUGAUGUUCGAUGUGCCAAGGCACAUCUAGAAGGUACUGUUAGGU [Same State FMN B GF 18]	772	760	1020	725	873
UUUAACGAGUGAUGUUCGAAGAGUAAUGGUGAGGAUAUCGAUUUUUCGAGAAGGCGCCUCGAAGUGAUACGAAAGUAUCGCUUCG [FMN A 6]	239	247	286	253	255
AUGUAUGAAUUAGGAUAUCGUUAGCCUUUCAUAUAUAUGAUAAAUGGAUAUGUCGUAGUGAUGUUACGAGAAGGAGUGUGGAGUA [KL-XFMN-B8]	49.3	52.9	38.2	64.6	30.5
UUAGCCCUAUAGGGCAAGACCUAUACUGAUACCAGAGGGUAUACCCUCCCUUGGCAGCGGAUCGAGUGAUGUUCGUAAGGUCAUU [AK4.4 SS Theophylline A]	741	730	844	776	572
AAGAGAUCGAGAAGGAGCGAGAAAGCUAGUACAUAUGUACUAGCAAAGCAGUGAUGUUGCACUCAGGUAGGUCGCUCGAUCUCAA [AK1 SS Arginine B]	395	299	432	335	314
UAACCUGUAAACGAUACCAGUUGCAUGGAAACUUGGUACUAGCUAGUGAUGUUAGCAAGCAACCCUUGGCAGCGUCGCCUGACAG [theeternabot_sameState_KL_Theo_B_17]	308	427	395	487	309
ACUCUUGCGUAUGAUACCAGCUUGUACCGCCACAUAUAUUCUAAGAGUUGAGUGAUGUUUAGCCCUUGGCAGCAUACUUGUGCGU [theeternabot_exclusion_KL_Theo_B_42]	706	546	778	606	702
UUUGGUUUCUCGGCCGCCACUCGUUGGUUAUGGGCCUCAGGGAUAUAGUGAUGUUAUGUAAAGAAGAGGACCGGGAGAAGGAAGG [ExTryptoB.Do]	493	395	225	283	380
CAUACGCAUGGAGGAUAUGAGAUUUUUCAUAUUACUUUUUAUUCUCAGUGAUGUUGGGAUUUGUAAUCAGAAGGCCAUGUGUAUG [#10 K4 FMN B Exclusion]	174	93.2	99.8	110	98.1
UGUCAUUGGUCGGCCGCCACUAGGACCGGGUUUUACCUAGUGAUGUUAGUAUAAACGGCCGCCACUAGGACCGGGACCGAUGACU [KL-SSTryp-B24 #DoubleAptamer]	846	447	547	434	122
UUGAGCCGGACGUAAGUCCGGCUCUGCGAGCGAGGACCGGUACGGCCGCCACUCGGUGCAGUGAUGUUGCAUGGCCGCAAGGCCG [#2 Exclusion - Tryptophan A Attempt #5 (HarryS)]	324	233	235	394	278
CGCAAGCAGCCAGUGAUGUUGGCCGCCUUGCGAGGACCGGUACGGCCGCCACUCGAAGGCGGCUACUGGUAAACCGCCUAACGGA [Onzaenla]	93.3	83.6	92.9	85.4	96.4

Reference: the supplement of paper PMC9170038
